Data published in article PMC12717047 (Nature Communications, 2025).

How the values were obtained:
Experiment in all cases: flow cytometry on cells
[1] = target: KRAS^WT p7 peptide presented on HLA-A*11 (p7^WT/A*11) (Homo sapiens, HLA-A*11:01, strain, biotin on the AviTag (BirA co-expressed))
[2] = target: T1, KRAS^WT p7 peptide presented on HLA-A*03 (p7^WT/A*03) (Homo sapiens, HLA-A*03:01, strain, biotin on the AviTag (BirA co-expressed))
T1 chain 1: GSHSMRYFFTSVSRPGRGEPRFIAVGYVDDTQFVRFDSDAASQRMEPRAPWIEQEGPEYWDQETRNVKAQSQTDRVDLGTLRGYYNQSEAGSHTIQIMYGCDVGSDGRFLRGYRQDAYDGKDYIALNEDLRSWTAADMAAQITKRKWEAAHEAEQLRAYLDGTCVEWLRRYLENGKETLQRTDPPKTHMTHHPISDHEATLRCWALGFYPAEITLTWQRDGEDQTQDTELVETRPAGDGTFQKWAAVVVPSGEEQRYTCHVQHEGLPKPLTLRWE
T1 chain 2: not shown
T1 chain 3: VVVGAGGVGK

[3] = target: T2, KRAS^WT p5 peptide presented on HLA-A*02 (p5^WT/A*02) (Homo sapiens, HLA-A*02:01, strain, biotin on the AviTag (BirA co-expressed))
T2 chain 1: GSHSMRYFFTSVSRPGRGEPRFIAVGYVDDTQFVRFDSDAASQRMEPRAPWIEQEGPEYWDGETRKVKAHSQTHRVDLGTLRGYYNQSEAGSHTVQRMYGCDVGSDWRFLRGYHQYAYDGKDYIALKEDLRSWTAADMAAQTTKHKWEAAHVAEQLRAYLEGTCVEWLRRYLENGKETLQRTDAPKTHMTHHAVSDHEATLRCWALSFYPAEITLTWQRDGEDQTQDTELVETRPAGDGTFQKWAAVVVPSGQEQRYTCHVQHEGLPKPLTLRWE
T2 chain 2: not shown
T2 chain 3: KLVVVGAGGV

Measured: binding result

B1: yeast-displayed scFv R302 (scFv, V domains shown)
VH: EVQLLESGGGVVQPGRSLRLSCAASGFTFSSYGMHWVRQAPGKGLEWVAVISYDGSNKYYADSVKGRFTISRDNSKNTLYLQMNSLRAEDTAVYYCLYGGNSYGMDVWGQGTMVTVFN
VL: DIVMTQSPATLSLSPGERATLSCRASQSLSSSFLAWYQQKPGQAPRLLIYGASSRATGIPDRFSGSGSGTDFTLTISRLEPEDFAVYYCQQSESALTFGGGTKVEIK
no binding: all assays above
